Values quoted from earlier work as cited in paper PMC9811451.
pKd: −log10 of the molar value.

Target: ACE2 (Homo sapiens) (UniProt Q9BYF1)
Sequence (Q9BYF1 18-740): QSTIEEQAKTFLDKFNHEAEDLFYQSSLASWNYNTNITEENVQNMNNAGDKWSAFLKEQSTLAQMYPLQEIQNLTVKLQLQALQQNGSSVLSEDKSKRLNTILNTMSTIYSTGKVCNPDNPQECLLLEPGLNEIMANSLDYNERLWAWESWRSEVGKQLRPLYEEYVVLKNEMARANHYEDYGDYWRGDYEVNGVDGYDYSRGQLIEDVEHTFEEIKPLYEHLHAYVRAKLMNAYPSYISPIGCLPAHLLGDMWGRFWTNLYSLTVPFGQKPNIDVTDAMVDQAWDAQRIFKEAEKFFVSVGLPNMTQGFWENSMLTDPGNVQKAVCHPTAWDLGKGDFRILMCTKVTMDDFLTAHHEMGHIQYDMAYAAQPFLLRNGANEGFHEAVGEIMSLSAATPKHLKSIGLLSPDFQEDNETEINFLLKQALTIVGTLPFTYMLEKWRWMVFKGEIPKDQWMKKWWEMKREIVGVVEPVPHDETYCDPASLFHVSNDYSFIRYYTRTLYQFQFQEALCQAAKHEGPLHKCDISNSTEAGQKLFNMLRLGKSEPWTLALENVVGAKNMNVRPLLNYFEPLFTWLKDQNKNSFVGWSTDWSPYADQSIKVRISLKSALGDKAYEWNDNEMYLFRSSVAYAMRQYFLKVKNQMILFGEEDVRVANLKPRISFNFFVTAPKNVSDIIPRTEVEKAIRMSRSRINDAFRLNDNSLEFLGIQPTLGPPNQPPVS

Substance: Spike (from UniProt P0DTC2)
- pKd: 8.40
